From IntAct's records for PubMed 21145460

B1: Regulator of nonsense transcripts 1 (Homo sapiens), Q92900-2 (parent)
chain: MSVEAYGPSSQTLTFLDTEEAELLGADTQGSEFEFTDFTLPSQTQTPPGGPGGPGGGGAGGPGGAGAGAAAGQLDAQVGPEGILQNGAVDDSVAKTSQLLAELNFEEDEEDTYYTKDLPIHACSYCGIHDPACVVYCNTSKKWFCNGRGNTSGSHIVNHLVRAKCKEVTLHKDGPLGETVLECYNCGCRNVFLLGFIPAKADSVVVLLCRQPCASQSSLKDINWDSSQWQPLIQDRCFLSWLVKIPSEQEQLRARQITAQQINKLEELWKENPSATLEDLEKPGVDEEPQHVLLRYEDAYQYQNIFGPLVKLEADYDKKLKESQTQDNITVRWDLGLNKKRIAYFTLPKTDSDMRLMQGDEICLRYKGDLAPLWKGIGHVIKVPDNYGDEIAIELRSSVGAPVEVTHNFQVDFVWKSTSFDRMQSALKTFAVDETSVSGYIYHKLLGHEVEDVIIKCQLPKRFTAQGLPDLNHSQVYAVKTVLQRPLSLIQGPPGTGKTVTSATIVYHLARQGNGPVLVCAPSNIAVDQLTEKIHQTGLKVVRLCAKSREAIDSPVSFLALHNQIRNMDSMPELQKLQQLKDETGELSSADEKRYRALKRTAERELLMNADVICCTCVGAGDPRLAKMQFRSILIDESTQATEPECMVPVVLGAKQLILVGDHCQLGPVVMCKKAAKAGLSQSLFERLVVLGIRPIRLQVQYRMHPALSAFPSNIFYEGSLQNGVTAADRVKKGFDFQWPQPDKPMFFYVTQGQEEIASSGTSYLNRTEAANVEKITTKLLKAGAKPDQIGIITPYEGQRSYLVQYMQFSGSLHTKLYQEVEIASVDAFQGREKDFIILSCVRANEHQGIGFLNDPRRLNVALTRARYGVIIVGNPKALSKQPLWNHLLNYYKEQKVLVEGPLNNLRESLMQFSKPRKLVNTINPGARFMTTAMYDAREAIIPGSVYDRSSQGRPSSMYFQTHDQIGMISAGPSHVAAMNIPIPFNLVMPPMPPPGYFGQANGPAAGRGTPKGKTGRGGRQKNRFGLPGPSQTNLPNSQASQDVASQPFSQGALTQGYISMSQPSQMSQPGLSQPELSQDSYLGDEFKSQIDVALSQDSTYQGERAYQHGGVTGLSQY
B2: Regulator of nonsense transcripts 1 (Homo sapiens), Q92900-2 (parent)
chain: B1 chain
partner: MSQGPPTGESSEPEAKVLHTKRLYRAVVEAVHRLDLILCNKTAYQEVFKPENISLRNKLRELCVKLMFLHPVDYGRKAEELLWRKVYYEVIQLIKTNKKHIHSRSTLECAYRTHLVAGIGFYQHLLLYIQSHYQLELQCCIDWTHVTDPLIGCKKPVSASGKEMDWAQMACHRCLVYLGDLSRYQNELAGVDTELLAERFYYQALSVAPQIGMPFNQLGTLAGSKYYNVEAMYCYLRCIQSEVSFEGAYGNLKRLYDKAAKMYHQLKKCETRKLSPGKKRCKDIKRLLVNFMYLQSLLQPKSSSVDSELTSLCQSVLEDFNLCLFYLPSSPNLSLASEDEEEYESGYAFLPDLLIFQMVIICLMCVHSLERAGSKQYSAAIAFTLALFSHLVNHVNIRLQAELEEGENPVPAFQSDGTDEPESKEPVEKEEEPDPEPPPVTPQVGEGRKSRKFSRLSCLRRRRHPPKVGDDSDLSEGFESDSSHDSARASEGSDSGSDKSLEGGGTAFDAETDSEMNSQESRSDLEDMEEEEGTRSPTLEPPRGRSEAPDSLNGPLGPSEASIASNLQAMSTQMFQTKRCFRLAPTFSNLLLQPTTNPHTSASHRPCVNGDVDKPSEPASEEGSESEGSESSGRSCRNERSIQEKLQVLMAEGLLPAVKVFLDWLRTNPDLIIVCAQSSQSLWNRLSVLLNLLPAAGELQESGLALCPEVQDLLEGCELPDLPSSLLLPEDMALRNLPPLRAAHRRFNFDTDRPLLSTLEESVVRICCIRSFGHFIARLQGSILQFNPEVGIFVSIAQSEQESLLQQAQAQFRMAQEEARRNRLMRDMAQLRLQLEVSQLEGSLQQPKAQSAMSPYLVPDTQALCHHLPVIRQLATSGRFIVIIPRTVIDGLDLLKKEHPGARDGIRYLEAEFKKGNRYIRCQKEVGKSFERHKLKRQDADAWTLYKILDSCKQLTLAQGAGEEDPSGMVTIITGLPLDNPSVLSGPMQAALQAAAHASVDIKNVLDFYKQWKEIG

Variants of: B1
Settings: with est1a_human SMG6, Q86US8
Chain of est1a_human SMG6, Q86US8 (Q86US8 whole entry): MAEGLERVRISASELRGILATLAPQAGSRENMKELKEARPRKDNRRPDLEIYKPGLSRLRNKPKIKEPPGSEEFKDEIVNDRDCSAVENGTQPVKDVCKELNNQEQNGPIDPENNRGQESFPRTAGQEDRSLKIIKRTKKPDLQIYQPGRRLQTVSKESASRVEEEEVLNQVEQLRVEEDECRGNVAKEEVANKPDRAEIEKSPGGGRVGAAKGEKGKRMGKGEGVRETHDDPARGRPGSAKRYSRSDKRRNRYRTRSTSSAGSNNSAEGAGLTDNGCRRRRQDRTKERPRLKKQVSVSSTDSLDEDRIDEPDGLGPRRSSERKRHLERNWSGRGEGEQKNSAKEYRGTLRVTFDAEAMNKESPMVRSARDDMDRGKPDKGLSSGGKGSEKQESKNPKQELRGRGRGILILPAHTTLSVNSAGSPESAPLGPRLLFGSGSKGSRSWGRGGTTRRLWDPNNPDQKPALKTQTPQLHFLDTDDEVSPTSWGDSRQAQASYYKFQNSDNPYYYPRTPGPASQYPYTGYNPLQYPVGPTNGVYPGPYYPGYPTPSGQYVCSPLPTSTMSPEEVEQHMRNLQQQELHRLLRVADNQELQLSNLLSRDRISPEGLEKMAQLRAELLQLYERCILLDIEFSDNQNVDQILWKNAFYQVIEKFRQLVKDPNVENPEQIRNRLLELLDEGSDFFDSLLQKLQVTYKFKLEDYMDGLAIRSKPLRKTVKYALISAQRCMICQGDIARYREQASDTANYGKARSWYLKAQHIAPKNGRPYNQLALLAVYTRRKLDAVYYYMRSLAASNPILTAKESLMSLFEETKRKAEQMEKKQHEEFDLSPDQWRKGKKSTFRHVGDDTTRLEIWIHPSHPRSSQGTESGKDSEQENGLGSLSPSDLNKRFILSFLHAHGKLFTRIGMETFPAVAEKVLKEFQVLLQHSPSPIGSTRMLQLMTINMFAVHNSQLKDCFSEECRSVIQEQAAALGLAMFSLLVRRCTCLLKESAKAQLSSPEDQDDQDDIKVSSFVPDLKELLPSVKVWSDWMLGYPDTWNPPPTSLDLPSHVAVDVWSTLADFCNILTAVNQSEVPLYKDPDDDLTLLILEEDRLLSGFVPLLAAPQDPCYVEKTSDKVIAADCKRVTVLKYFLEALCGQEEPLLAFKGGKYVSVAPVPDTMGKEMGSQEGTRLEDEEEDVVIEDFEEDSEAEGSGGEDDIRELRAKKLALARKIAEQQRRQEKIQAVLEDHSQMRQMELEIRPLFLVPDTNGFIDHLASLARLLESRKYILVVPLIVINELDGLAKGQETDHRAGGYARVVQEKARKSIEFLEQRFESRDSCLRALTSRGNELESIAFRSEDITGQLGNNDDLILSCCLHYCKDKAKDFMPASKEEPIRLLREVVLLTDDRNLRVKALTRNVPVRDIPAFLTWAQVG

| Variant | effect of a mutation on the interaction |
| --- | --- |
| K498A | increasing interaction |
| D636A;E637A | increasing interaction |

Variants of: B2
Settings: with smg5_human SMG5, Q9UPR3

| Variant | effect of a mutation on the interaction |
| --- | --- |
| D636A;E637A | increasing interaction |
| K498A | increasing interaction |
